Assay results published in the supplement of paper PMC5998384.

What was measured:
[1] = test system: HeLa Kyoto; assay: solubility in G1/S (NP-40 vs SDS abundance) (log2 ratio); higher = more soluble; details: cell cycle stage: G1/S
[2] = test system: HeLa Kyoto; assay: melting temperature (median over replicates), in situ; higher = more thermally stable
[3] = test system: HeLa Kyoto; assay: solubility change mitosis vs G1/S (difference of NP-40 vs SDS log2 ratios) (log2 ratio difference); higher = more soluble in mitosis
[4] = test system: HeLa Kyoto; assay: thermal stability score vs G1/S (z-score of summed log2 fold changes over temperatures); higher = more thermally stable than in G1/S
[5] = cell cycle stage: early G1 (4.5 h after nocodazole release)
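Wherever melting temperature (median over replicates), in situ is given: HeLa Kyoto cells synchronized by double thymidine or nocodazole block, proteins quantified by TMT10plex mass spectrometry, three independent biological replicates.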
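Wherever solubility change mitosis vs G1/S (difference of NP-40 vs SDS log2 ratios) is given: synchronized HeLa Kyoto cells (double thymidine block for G1/S, nocodazole release for mitosis), protein amounts in NP-40 versus SDS lysates quantified by mass spectrometry, three biological replicates.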
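Wherever solubility in G1/S (NP-40 vs SDS abundance) is given: HeLa Kyoto cells arrested at G1/S by double thymidine block, proteins quantified by TMT10plex mass spectrometry in mild NP-40 versus SDS extracts, three biological replicates.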
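Wherever thermal stability score vs G1/S (z-score of summed log2 fold changes over temperatures) is given: synchronized HeLa Kyoto cells, proteins quantified by TMT10plex mass spectrometry, three biological replicates, mitosis taken 0.5 h after nocodazole release, G1/S directly after double thymidine block.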

Sequence: MATCAEILRSEFPEIDGQVFDYVTGVLHSGSADFESVDDLVEAVGELLQEVSGDSKDDAGIRAVCQRMYNTLRLAEPQSQGNSQVLLDAPIQLSKITENYDCGTKLPGLLKREQSSTVNAKKLEKAEARLKAKQEKRSEKDTLKTSNPLVLEEASASQAGSRKESRLESSGKNKSYDVRIENFDVSFGDRVLLAGADVNLAWGRRYGLVGRNGLGKTTLLKMLATRSLRVPAHISLLHVEQEVAGDDTPALQSVLESDSVREDLLRRERELTAQIAAGRAEGSEAAELAEIYAKLEEIEADKAPARASVILAGLGFTPKMQQQPTREFSGGWRMRLALARALFARPDLLLLDEPTNMLDVRAILWLENYLQTWPSTILVVSHDRNFLNAIATDIIHLHSQRLDGYRGDFETFIKSKQERLLNQQREYEAQQQYRQHIQVFIDRFRYNANRASQVQSKLKMLEKLPELKPVDKESEVVMKFPDGFEKFSPPILQLDEVDFYYDPKHVIFSRLSVSADLESRICVVGENGAGKSTMLKLLLGDLAPVRGIRHAHRNLKIGYFSQHHVEQLDLNVSAVELLARKFPGRPEEEYRHQLGRYGISGELAMRPLASLSGGQKSRVAFAQMTMPCPNFYILDEPTNHLDMETIEALGRALNNFRGGVILVSHDERFIRLVCRELWVCEGGGVTRVEGGFDQYRALLQEQFRREGFL [ABCF3]
- solubility in G1/S (log2) [1]: 0.0738
- melting temperature ([2]; cell cycle stage: G1/S): 47.9 °C
- melting temperature ([2]; cell cycle stage: mitosis): 47.9 °C
- solubility change mitosis (log2) [3]: -0.0928
- thermal stability score [4, 5]: 1.82
- thermal stability score ([4]; cell cycle stage: mitosis): 3.62

Sequence: MATEGDVELELETETSGPERPPEKPRKHDSGAADLERVTDYAEEKEIQSSNLETAMSVIGDRRSREQKAKQEREKELAKVTIKKEDLELIMTEMEISRAAAERSLREHMGNVVEALIALTN [HYPK]
- solubility in G1/S (log2) [1]: 0.395
- melting temperature ([2]; cell cycle stage: G1/S): 54.4 °C
- melting temperature ([2]; cell cycle stage: mitosis): 54 °C
- solubility change mitosis (log2) [3]: 0.208
- thermal stability score [4, 5]: -6.39
- thermal stability score ([4]; cell cycle stage: mitosis): -8.21

Sequence: MATEGMILTNHDHQIRVGVLTVSDSCFRNLAEDRSGINLKDLVQDPSLLGGTISAYKIVPDEIEEIKETLIDWCDEKELNLILTTGGTGFAPRDVTPEATKEVIEREAPGMALAMLMGSLNVTPLGMLSRPVCGIRGKTLIINLPGSKKGSQECFQFILPALPHAIDLLRDAIVKVKEVHDELEDLPSPPPPLSPPPTTSPHKQTEDKGVQCEEEEEEKKDSGVASTEDSSSSHITAAAIAAKIPDSIISRGVQVLPRDTASLSTTPSESPRAQATSRLSTASCPTPKVQSRCSSKENILRASHSAVDITKVARRHRMSPFPLTSMDKAFITVLEMTPVLGTEIINYRDGMGRVLAQDVYAKDNLPPFPASVKDGYAVRAADGPGDRFIIGESQAGEQPTQTVMPGQVMRVTTGAPIPCGADAVVQVEDTELIRESDDGTEELEVRILVQARPGQDIRPIGHDIKRGECVLAKGTHMGPSEIGLLATVGVTEVEVNKFPVVAVMSTGNELLNPEDDLLPGKIRDSNRSTLLATIQEHGYPTINLGIVGDNPDDLLNALNEGISRADVIITSGGVSMGEKDYLKQVLDIDLHAQIHFGRVFMKPGLPTTFATLDIDGVRKIIFALPGNPVSAVVTCNLFVVPALRKMQGILDPRPTIIKARLSCDVKLDPRPEYHRCILTWHHQEPLPWAQSTGNQMSSRLMSMRSANGLLMLPPKTEQYVELHKGEVVDVMVIGRL [GPHN]
- solubility in G1/S (log2) [1]: 0.226
- melting temperature ([2]; cell cycle stage: G1/S): 55.6 °C
- melting temperature ([2]; cell cycle stage: mitosis): 54.6 °C
- solubility change mitosis (log2) [3]: -0.057
- thermal stability score [4, 5]: -0.16
- thermal stability score ([4]; cell cycle stage: mitosis): -1.19

Sequence: MATESPATRRVQVAEHPRLLKLKEMFNSKFGSIPKFYVRAPGRVNIIGEHIDYCGYSVLPMAVEQDVLIAVEPVKTYALQLANTNPLYPDFSTSANNIQIDKTKPLWHNYFLCGLKGIQEHFGLSNLTGMNCLVDGNIPPSSGLSSSSALVCCAGLVTLTVLGRNLSKVELAEICAKSERYIGTEGGGMDQSISFLAEEGTAKLIEFSPLRATDVKLPSGAVFVIANSCVEMNKAATSHFNIRVMECRLAAKLLAKYKSLQWDKVLRLEEVQAKLGISLEEMLLVTEDALHPEPYNPEEICRCLGISLEELRTQILSPNTQDVLIFKLYQRAKHVYSEAARVLQFKKICEEAPENMVQLLGELMNQSHMSCRDMYECSCPELDQLVDICRKFGAQGSRLTGAGWGGCTVSMVPADKLPSFLANVHKAYYQRSDGSLAPEKQSLFATKPGGGALVLLEA [GALK2]
- solubility in G1/S (log2) [1]: 0.145
- melting temperature ([2]; cell cycle stage: G1/S): 54.5 °C
- melting temperature ([2]; cell cycle stage: mitosis): 54.2 °C
- solubility change mitosis (log2) [3]: -0.141
- thermal stability score [4, 5]: 0.289
- thermal stability score ([4]; cell cycle stage: mitosis): 0.99

Sequence: MATGANATPLDFPSKKRKRSRWNQDTMEQKTVIPGMPTVIPPGLTREQERAYIVQLQIEDLTRKLRTGDLGIPPNPEDRSPSPEPIYNSEGKRLNTREFRTRKKLEEERHNLITEMVALNPDFKPPADYKPPATRVSDKVMIPQDEYPEINFVGLLIGPRGNTLKNIEKECNAKIMIRGKGSVKEGKVGRKDGQMLPGEDEPLHALVTANTMENVKKAVEQIRNILKQGIETPEDQNDLRKMQLRELARLNGTLREDDNRILRPWQSSETRSITNTTVCTKCGGAGHIASDCKFQRPGDPQSAQDKARMDKEYLSLMAELGEAPVPASVGSTSGPATTPLASAPRPAAPANNPPPPSLMSTTQSRPPWMNSGPSESRPYHGMHGGGPGGPGGGPHSFPHPLPSLTGGHGGHPMQHNPNGPPPPWMQPPPPPMNQGPHPPGHHGPPPMDQYLGSTPVGSGVYRLHQGKGMMPPPPMGMMPPPPPPPSGQPPPPPSGPLPPWQQQQQQPPPPPPPSSSMASSTPLPWQQNTTTTTTSAGTGSIPPWQQQQAAAAASPGAPQMQGNPTMVPLPPGVQPPLPPGAPPPPPPPPPGSAGMMYAPPPPPPPPMDPSNFVTMMGMGVAGMPPFGMPPAPPPPPPQN [SF1]
- solubility in G1/S (log2) [1]: 0.255
- melting temperature ([2]; cell cycle stage: G1/S): 53.4 °C
- solubility change mitosis (log2) [3]: 0.135
- thermal stability score [4, 5]: -4.58
- thermal stability score ([4]; cell cycle stage: mitosis): -1.85
